Target: T1, human ubiquitin conjugating enzyme E2 protein Ubc-7 (human, UniProt P60604 1-165, limits assumed)
T1 construct: also called Homo sapiens ubiquitin-conjugating enzyme E2G 2; UCE E2 Ubc7
T1 sequence: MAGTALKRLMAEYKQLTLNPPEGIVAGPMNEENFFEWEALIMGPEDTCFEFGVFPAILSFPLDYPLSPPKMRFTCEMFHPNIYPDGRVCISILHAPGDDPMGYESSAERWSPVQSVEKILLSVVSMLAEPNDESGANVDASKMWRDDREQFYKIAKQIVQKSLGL
Assay: crystal structure of the gp78-Ubc7 fusion protein (SEQ ID No. 12) solved to 2.2 Å

B1: gp78 E3 RING motif with flanking sequence (amino acid residues 322 to 393 of the full-length gp78 E3 protein) (other)
chain: MEARFAVATPEELAVNNDDCAICWDSMQAARKLPCGHLFHNSCLRSWLEQDTSCPTCRMSLNIADNNRVREE
notes: also called gp78 RING; gp78RING motif
Question: Does B1 bind?
Answer: Result: binds

From patent US20100092998A1 (PENN STATE RESEARCH FOUNDATION, published 2010)
